Consider two molecules from patent US20070148164A1 (Biogen, published 2007).

In experiment [1] the target is T1, biotinylated human FcRn-huM4Fc fusion protein (human, biotinylated with BiotinXX sulfosuccinimidyl ester (sites not given)).
T1 construct: also called bhFcRnFc; biotinylated Fc/FcRn fusion protein
As to the kind of experiment: FRET competition, pH 5.8: competitor mAb against Eu-labelled h5C8 for biotinylated hFcRnFc; reference w.t. control antibody.

In experiment [2] the target is T1, biotinylated human FcRn-huM4Fc fusion …. As to the kind of experiment: AlphaScreen competition, pH 6.0: altered antibody against human IgG1 acceptor beads for biotinylated hFcRnFc; reference control antibody. Background: In Alpha technology, singlet oxygen from a donor bead excites a nearby acceptor bead.

B1: huCBE11 altered antibody with mutation N434L (antibody, human IgG1, kappa)
heavy: not shown
light: DIQMTQSPSSLSASVGDRVTITCKAGQDIKSYLSWYQQKPGKAPKLLIYYATRLADGVPSRFSGSGSGTDYTLTISSLQPEDFATYYCLQHGESPWTFGGGTKLEIKRTVAAPSVFIFPPSDEQLKSGTASVVCLLNNFYPREAKVQWKVDNALQSGNSQESVTEQDSKDSTYSLSSTLTLSKADYEKHKVYACEVTHQGLSSPVTKSFNRGEC
notes: Position is in EU numbering
B1: the “fold lower FcRn binding affinity than the control antibody” value in experiment [1] was approximately 4000 fold.

B2: huCBE11 altered antibody with mutation Q438E (antibody, human IgG1, kappa)
heavy: not shown
light: B1 light
notes: Position is in EU numbering
On to B2, for which the “fold lower FcRn binding affinity than the control antibody” value in experiment [2] was approximately 1500 fold.
